Results on ten molecules are retold here after patent US20250145711A1 (Janssen / Centocor, published 2025).

The target of assay [1] is T1, TRCW5 antigen (CD3δε-Fc-Avi) (biotinylated (site not stated)).
T1 construct: also called recombinant CD3
In words: ELISA, E. coli scFv on biotinylated TRCW5. On the procedure: Briefly, DNA was transformed into an E. coli expression vector to generate scFv molecules having a C-terminal HA-tag, and cells were plated on 2×YT/Carb/2% Glucose grown overnight at 37 C. Colonies were picked and transferred 50 ul of overnight growth cultures to new plates containing 500 ul of 2×YT/Carb/0.1% Glucose, grown for 6-7 hr, and combined with 50 ul 2×YT medium containing 1×carbenicillin & 12×IPTG. Cultures were incubated with shaking ˜600 RPM 30° C. overnight. Streptavidin coated plates were bound with 50 μL of biotinylated TRCW5 antigen (CD3δε-Fc-Avi, SEQ ID NO: 39) at the concentrations indicated in the ELISA graph for 45 min at room temperature with shaking (FIG. 1, FIG. 3, FIG. 4) followed by washing 3× with 1×TBST. Plates were blocked with 200 ul 3% Milk in 1×TBST for ˜45 mins at room temperature followed by washing 3× with 1×TBST. E. coli cultures were harvested by centrifugation at […] for 10 mins 4° C. and 50 μL of supernatant was transferred into CD3-coated plates followed by incubation at 4 C for 45 min. Plates were washed 3× with 1×TBST. Bound scFv was detected with Chicken Polyclonal Anti-HA-HRP (ab1190) [1:1000] for ˜45 mins RT and luminescence detected with chemi-luminescent substrate.
(In general: An ELISA detects its analyte on a solid surface through an enzyme-linked reagent.)

In assay [2] the target is T2, recombinant human PSMA (human, UniProt Q04609 44-750).
T2 construct: also called hu PSMA; prostate-specific membrane antigen
T2 sequence (Q04609 44-750 limits assumed): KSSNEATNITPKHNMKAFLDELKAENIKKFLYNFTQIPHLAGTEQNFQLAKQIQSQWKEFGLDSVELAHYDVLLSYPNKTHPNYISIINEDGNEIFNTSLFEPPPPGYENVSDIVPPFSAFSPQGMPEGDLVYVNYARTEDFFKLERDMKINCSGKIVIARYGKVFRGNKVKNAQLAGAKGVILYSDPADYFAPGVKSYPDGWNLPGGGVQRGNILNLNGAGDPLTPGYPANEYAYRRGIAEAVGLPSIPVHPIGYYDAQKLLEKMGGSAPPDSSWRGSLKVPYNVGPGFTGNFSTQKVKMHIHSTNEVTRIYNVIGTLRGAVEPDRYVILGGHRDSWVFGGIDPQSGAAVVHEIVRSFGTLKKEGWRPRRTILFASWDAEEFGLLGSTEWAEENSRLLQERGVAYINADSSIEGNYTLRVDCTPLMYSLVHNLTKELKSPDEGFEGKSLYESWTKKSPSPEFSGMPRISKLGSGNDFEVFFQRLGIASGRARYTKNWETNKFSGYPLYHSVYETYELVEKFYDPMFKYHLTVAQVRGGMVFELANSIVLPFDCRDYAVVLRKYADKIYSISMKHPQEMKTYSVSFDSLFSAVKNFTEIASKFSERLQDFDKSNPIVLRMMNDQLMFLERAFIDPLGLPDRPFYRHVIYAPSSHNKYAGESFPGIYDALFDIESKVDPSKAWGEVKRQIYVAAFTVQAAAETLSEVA
In words: SPR (Biacore 8K), antibody captured on anti-Fc, PSMA in solution; average of 2. On the procedure:
(§1) The binding affinity of anti-PSMA to the recombinant human or cynomolgus PSMA was determined by surface plasmon resonance (SPR) using a Biacore 8K instrument (ELN PSMA-00721). The antibodies were captured on a goat anti-Fc antibody-modified C1 chip and titrated with 3-fold serial dilutions of PSMA antigen spanning concentrations of 100 nM to 3.7 nM (human PSMA) or […] 22.2-600 nM for cyno PSMA. The association and dissociation were monitored for 3 and 60 minutes, respectively, using a flow rate of 50 μL/min. Raw binding data was referenced by subtracting the analyte binding signals from blanks and analyzed using a 1:1 Langmuir binding model by the Biacore Insight evaluation software to obtain the kinetics which were used to calculate the binding affinity. The anti-PSMA were captured using an anti-human Fc antibody and the antigens were injected in solution.
A general note: In SPR one partner is held on a chip, and binding of the other changes the refractive index at the surface.

The target in assay [3] is T3, recombinant cynomolgus PSMA (cynomolgus, UniProt A0A2K5VNZ0 44-750).
T3 construct: also called cy PSMA; cyno PSMA
The description is as above. On the procedure: as §1

Assay [4] deals with T1, TRCW5 antigen (CD3δε-Fc-Avi). In words: ELISA after heat.

T1 sequence (chain, as listed by the source mutant limits assumed): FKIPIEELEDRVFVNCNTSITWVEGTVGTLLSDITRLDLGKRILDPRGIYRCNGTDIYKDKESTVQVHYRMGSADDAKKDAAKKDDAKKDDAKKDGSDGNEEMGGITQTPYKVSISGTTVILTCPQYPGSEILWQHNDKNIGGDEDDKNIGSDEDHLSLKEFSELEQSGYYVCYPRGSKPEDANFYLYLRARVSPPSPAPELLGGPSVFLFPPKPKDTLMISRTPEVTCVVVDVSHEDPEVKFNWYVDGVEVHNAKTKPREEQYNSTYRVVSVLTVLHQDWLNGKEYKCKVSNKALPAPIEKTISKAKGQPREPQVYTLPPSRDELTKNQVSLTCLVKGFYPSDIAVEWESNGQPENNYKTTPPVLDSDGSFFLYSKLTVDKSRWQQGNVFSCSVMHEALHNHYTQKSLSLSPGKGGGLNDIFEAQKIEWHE

B1: CD3B1131 (scFv)
scFv: EVQLVQSGAEVKKPGESLRISCKASGYTFTRSTMHWVRQMPGKGLEWMGYINPSSAYTNYNPSFQGHVTLSADKSISTAYLQWSSLKASDTAMYYCARPQVHYDYNGFPYWGQGTLVTVSSGGSEGKSSGSGSESKSTGGSDIQLTQSPSSLSASVGDRVTITCSASSSVSYMNWYQQKPGTSPKRLIYDSSKLASGVPSRFSGSGSGTDYTLTISSLQPEDFATYYCQQWSRNPPTFGGGTKVEIK
notes: also called CD381131
Broadly, the EC50 is the concentration needed to bring the measured effect to its halfway point. Take B1: the concentration giving a half-maximal response (EC50) in assay [1] was found to be 1.14 nM.

B2: CD3B1132 (scFv)
scFv: EVQLVQSGAEVKKPGESLRISCKASGYTFTRSTMHWVRQMPGKGLEWMGYINPSSAYTNYNPSFQGHVTLSADKSISTAYLQWSSLKASDTAMYYCARPQVHYDYNGFPYWGQGTLVTVSSGGSEGKSSGSGSESKSTGGSEIVLTQSPATLSLSPGERATLSCSASSSVSYMNWYQQKPGTSPRRLIYDSSKLASGIPARFSGSGSGRDYTLTISSLEPEDFAVYYCQQWSRNPPTFGGGTKVEIK
On to B2, for which, in assay [1], the EC50 is roughly 1.1 nM.

B3: CD3B1135 (scFv)
scFv: EIVLTQSPATLSLSPGERATLSCSASSSVSYMNWYQQKPGTSPRRLIYDSSKLASGIPARFSGSGSGRDYTLTISSLEPEDFAVYYCQQWSRNPPTFGGGTKVEIKGGSEGKSSGSGSESKSTGGSQVQLVQSGAEVKKPGSSVKVSCKASGYTFTRSTMHWVRQAPGQGLEWMGYINPSSAYTNYNQKFQGRVTLTADKSTSTAYMELSSLRSEDTAVYYCARPQVHYDYNGFPYWGQGTLVTVSS
Consider B3, for which the EC50 in assay [1] is 1.04 nM. This counts as single-digit nanomolar.

B4: CD3B1129 (scFv)
scFv: QVQLVQSGAEVKKPGSSVKVSCKASGYTFTRSTMHWVRQAPGQGLEWMGYINPSSAYTNYNQKFQGRVTLTADKSTSTAYMELSSLRSEDTAVYYCARPQVHYDYNGFPYWGQGTLVTVSSGGSEGKSSGSGSESKSTGGSDIQLTQSPSSLSASVGDRVTITCSASSSVSYMNWYQQKPGTSPKRLIYDSSKLASGVPSRFSGSGSGTDYTLTISSLQPEDFATYYCQQWSRNPPTFGGGTKVEIK
For B4, the 50% effective concentration (EC50) in assay [1] was found to be 0.712 nM.

B5: PS3B1508 (bispecific antibody, human IgG1, lambda, L234A L235A)
chain: DIQMTQSPSSLSASVGDRVTITCRARQSIGTAIHWYQQKPGKAPKLLIKYASESISGVPSRFSGSGSGTDFTLTISSLQPEDFATYYCQQSGSWPYTFGQGTKLEIKGGSEGKSSGSGSESKSTGGSEVQLVESGGGLVKPGGSLRLSCAASGFTFSRYNMNWVRQAPGKGLEWVSSISTSSNYIYYADSVKGRFTFSRDNAKNSLDLQMSGLRAEDTAIYYCTRGWGPFDYWGQGTLVTVSSEPKSSDKTHTCPPCPAPEAAGGPSVFLFPPKPKDTLMISRTPEVTCVVVSVSHEDPEVKFNWYVDGVEVHNAKTKPREEQYNSTYRVVSVLTVLHQDWLNGKEYKCKVSNKALPAPIEKTISKAKGQPREPQVYTLPPSREEMTKNQVSLWCLVKGFYPSDIAVEWESNGQPENNYKTTPPVLDSDGSFFLYSKLTVDKSRWQQGNVFSCSVMHEALHNHYTQKSLSLSPGK
heavy: EVQLVESGGGLVQPGGSLRLSCAASGFTFSSYAMSWVRQAPGKGLEWVSAISGGIGSTYYADSVKGRFTISRDNSKNTLWLQMNSLRAEDTAVYYCAKDAVGATPYYFDYWGQGTLVTVSSASTKGPSVFPLAPSSKSTSGGTAALGCLVKDYFPEPVTVSWNSGALTSGVHTFPAVLQSSGLYSLSSVVTVPSSSLGTQTYICNVNHKPSNTKVDKKVEPKSCDKTHTCPPCPAPEAAGGPSVFLFPPKPKDTLMISRTPEVTCVVVSVSHEDPEVKFNWYVDGVEVHNAKTKPREEQYNSTYRVVSVLTVLHQDWLNGKEYKCKVSNKALPAPIEKTISKAKGQPREPQVYTLPPSREEMTKNQVSLSCAVKGFYPSDIAVEWESNGQPENNYKTTPPVLDSDGSFFLVSKLTVDKSRWQQGNVFSCSVMHEALHNRFTQKSLSLSPGK
light: QSVLTQPPSVSAAPGQKVTISCSGSSSNIGINYVSWYQQLPGTAPKLLIYDNNKRPSGIPDRFSGSKSGTSATLGITGLQTGDEADYYCGTWDSSLSAVVFGGGTKLTVLGQPKAAPSVTLFPPSSEELQANKATLVCLISDFYPGAVTVAWKADSSPVKAGVETTTPSKQSNNKYAASSYLSLTPEQWKSHRSYSCQVTHEGSTVEKTVAPTECS
notes: HC1 (Knob3): CD3W245-LH-scFv; HC2 (Hole3-RF) PSMB896-G100A-Fab-RF: IgG1 AAS; LC1 is given as NA; also called PS3B1508.003
Broadly, the Kd is the concentration at which binding is half-saturated. As a reminder, the koff is the rate constant with which the complex falls apart. Usually kon stands for a measure of how fast the partners come together. On to B5, for which, in assay [2], the dissociation constant (Kd) was found to be 0.382 nM, the koff is 8.89e-05 s⁻¹ and the on-rate constant (kon) was determined as 232000 M⁻¹ s⁻¹. In assay [3], the Kd is 2.2 nM, the koff is 0.00323 s⁻¹ and the kon came to 1.46e+06 M⁻¹ s⁻¹.

B6: PS3B1396 (bispecific antibody, human IgG1, lambda, L234A L235A)
chain: EIVLTQSPATLSASPGERVTLSCSASSSVSYMNWYQQKPGQAPRRWIYDSSKLASGVPARFSGSGSGRDYTLTISSLEPEDFAVYYCQQWSRNPPTFGGGTKVEIKGGSEGKSSGSGSESKSTGGSQVQLVQSGAEVKKPGSSVKVSCKASGYTFTRSTMHWVKQAPGQGLEWIGYINPSSAYTNYNQKFQGRVTLTADKSTSTAYMELSSLRSEDTAVYYCASPQVHYDYAGFPYWGQGTLVTVSSEPKSSDKTHTCPPCPAPEAAGGPSVFLFPPKPKDTLMISRTPEVTCVVVSVSHEDPEVKFNWYVDGVEVHNAKTKPREEQYNSTYRVVSVLTVLHQDWLNGKEYKCKVSNKALPAPIEKTISKAKGQPREPQVYTLPPSREEMTKNQVSLWCLVKGFYPSDIAVEWESNGQPENNYKTTPPVLDSDGSFFLYSKLTVDKSRWQQGNVFSCSVMHEALHNHYTQKSLSLSPGK
heavy: B5 heavy
light: B5 light
notes: HC1 (Knob3): CD3B2030-N106A-scFv LH, HC2 (Hole3): PSMB896-G100A-Fab; LC1 is given as NA; also called PS3B1396.002
Regarding B6, in assay [2], the Kd was found to be 0.395 nM, the koff came to 8.82e-05 s⁻¹ and the kon was determined as 224000 M⁻¹ s⁻¹. In addition, in assay [3], the Kd worked out at 5.07 nM, the koff was 0.0019 s⁻¹ and the kon was found to be 587000 M⁻¹ s⁻¹.

B7: CD3B1133 (scFv)
scFv: DIQLTQSPSSLSASVGDRVTITCSASSSVSYMNWYQQKPGTSPKRLIYDSSKLASGVPSRFSGSGSGTDYTLTISSLQPEDFATYYCQQWSRNPPTFGGGTKVEIKGGSEGKSSGSGSESKSTGGSQVQLVQSGAEVKKPGSSVKVSCKASGYTFTRSTMHWVRQAPGQGLEWMGYINPSSAYTNYNQKFQGRVTLTADKSTSTAYMELSSLRSEDTAVYYCARPQVHYDYNGFPYWGQGTLVTVSS
Molecule B7 came in with an EC50 in assay [1] of 0.958 nM.

B8: CD3B1134 (scFv)
scFv: DIQLTQSPSSLSASVGDRVTITCSASSSVSYMNWYQQKPGTSPKRLIYDSSKLASGVPSRFSGSGSGTDYTLTISSLQPEDFATYYCQQWSRNPPTFGGGTKVEIKGGSEGKSSGSGSESKSTGGSEVQLVQSGAEVKKPGESLRISCKASGYTFTRSTMHWVRQMPGKGLEWMGYINPSSAYTNYNPSFQGHVTLSADKSISTAYLQWSSLKASDTAMYYCARPQVHYDYNGFPYWGQGTLVTVSS
In assay [1], B8 showed an EC50 of roughly 0.0063 nM.

B9: CD3B1130 (scFv)
scFv: QVQLVQSGAEVKKPGSSVKVSCKASGYTFTRSTMHWVRQAPGQGLEWMGYINPSSAYTNYNQKFQGRVTLTADKSTSTAYMELSSLRSEDTAVYYCARPQVHYDYNGFPYWGQGTLVTVSSGGSEGKSSGSGSESKSTGGSEIVLTQSPATLSLSPGERATLSCSASSSVSYMNWYQQKPGTSPRRLIYDSSKLASGIPARFSGSGSGRDYTLTISSLEPEDFAVYYCQQWSRNPPTFGGGTKVEIK
notes: also called IGHV1-69*02-IGHJ1-01 / IGKV3-11*02-IGKJ4-01 grafted construct, HL
Regarding B9, in assay [4], the “% Retained 55° C.” value was 90%, the “% Retained 60° C.” value stood at 11% and the “% Retained 65° C.” value is 1%. Further, the concentration giving a half-maximal response (EC50) in assay [1] is 0.747 nM.

B10: CD3B1128 (scFv)
scFv: QVVLTQSPAIMSAFPGEKVTMTCSASSSVSYMNWYQQKSGTSPKRWIYDSSKLASGVPARFSGSGSGTSYSLTISSMETEDAATYYCQQWSRNPPTFGGGTKLQITGGSEGKSSGSGSESKSTGGSQVQLQQSGAELARPGASVKMSCKASGYTFTRSTMHWVKQRPGQGLEWIGYINPSSAYTNYNQKFKDKATLTADKSSSTAYMQLSSLTSEDSAVYYCASPQVHYDYNGFPYWGQGTLVTVSA
notes: also called Murine LH; murine Cris-7 scFv (LH)
Consider B10, for which, in assay [4], the “% Retained 55° C.” value was found to be 10%, the “% Retained 60° C.” value stood at 2% and the “% Retained 65° C.” value stood at 3%. The molecule also registered an EC50 in assay [1] of roughly 0.437 nM.
